Data: patent US20110076693

B1: Flag-Plk2 (protein)
chain: MELLRTITYQPAASTKMCEQALGKGCGADSKKKRPPQPPEESQPPQSQAQVPPAAPHHHHHHSHSGPEISRIIVDPTTGKRYCRGKVLGKGGFAKCYEMTDLTNNKVYAAKIIPHSRVAKPHQREKIDKEIELHRILHHKHVVQFYHYFEDKENIYILLEYCSRRSMAHILKARKVLTEPEVRYYLRQIVSGLKYLHEQEILHRDLKLGNFFINEAMELKVGDFGLAARLEPLEHRRRTICGTPNYLSPEVLNKQGHGCESDIWALGCVMYTMLLGRPPFETTNLKETYRCIREARYTMPSSLLAPAKHLIASMLSKNPEDRPSLDDIIRHDFFLQGFTPDRLSSSCCHTVPDFHLSSPAKNFFKKAAAALFGGKKDKARYIDTHNRVSKEDEDIYKLRHDLKKTSITQQPSKHRTDEELQPPTTTVARSGTPAVENKQQIGDAIRMIVRGTLGSCSSSSECLEDSTMGSVADTVARVLRGCLENMPEADCIPKEQLSTSFQWVTKWVDYSNKYGFGYQLSDHTVGVLFNNGAHMSLLPDKKTVHYYAELGQCSVFPATDAPEQFISQVTVLKYFSHYMEENLMDGGDLPSVTDIRRPRLYLLQWLKSDKALMMLFNDGTFQVNFYHDHTKIIICSQNEEYLLTYINEDRISTTFRLTTLLMSGCSSELKNRMEYALNMLLQRCN
B2: Flag-Plk3 (protein)
chain: MEPAAGFLSPRPFQRAAAAPAPPAGPGPPPSALRGPELEMLAGLPTSDPGRLITDPRSGRTYLKGRLLGKGGFARCYEATDTETGSAYAVKVIPQSRVAKPHQREKILNEIELHRDLQHRHIVRFSHHFEDADNIYIFLELCSRKSLAHIWKARHTLLEPEVRYYLRQILSGLKYLHQRGILHRDLKLGNFFITENMELKVGDFGLAARLEPPEQRKKTICGTPNYVAPEVLLRQGHGPEADVWSLGCVMYTLLCGSPPFETADLKETYRCIKQVHYTLPASLSLPARQLLAAILRASPRDRPSIDQILRHDFFTKGYTPDRLPISSCVTVPDLTPPNPARSLFAKVTKSLFGRKKKSKNHAQERDEVSGLVSGLMRTSVGHQDARPEAPAASGPAPVSLVETAPEDSSPRGTLASSGDGFEEGLTVATVVESALCALRNCIAFMPPAEQNPAPLAQPEPLVWVSKWVDYSNKFGFGYQLSSRRVAVLFNDGTHMALSANRKTVHYNPTSTKHFSFSVGAVPRALQPQLGILRYFASYMEQHLMKGGDLPSVEEVEVPAPPLLLQWVKTDQALLMLFSDGTVQVNFYGDHTKLILSGWEPLLVTFVARNRSACTYLASHLRQLGCSPDLRQRLRYALRLLRDRSPA

Target: GST-PBIPtide-A6 [GST: P08515]

Protein | in vitro kinase assay of Flag immunoprecipitates, 32P incorporated into GST-PBIPtide-A6
B1 | Plk1, but not Plk2 or Plk3, phosphorylates and binds to the T78 motif of PBIPtides
B2 | Plk1, but not Plk2 or Plk3, phosphorylates and binds to the T78 motif of PBIPtides
